Measured values: article PMC2756588

T1: Abp1, P15891
T1 sequence (P15891 535-592, looked up): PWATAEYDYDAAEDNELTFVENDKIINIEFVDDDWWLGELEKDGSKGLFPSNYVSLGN

T2: Bbc1, P47068
T2 sequence (P47068 1-78, looked up): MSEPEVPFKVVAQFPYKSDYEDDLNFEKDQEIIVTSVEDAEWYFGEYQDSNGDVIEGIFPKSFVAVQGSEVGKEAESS

T3: Boi1, P38041
T3 sequence (P38041 1-86, looked up): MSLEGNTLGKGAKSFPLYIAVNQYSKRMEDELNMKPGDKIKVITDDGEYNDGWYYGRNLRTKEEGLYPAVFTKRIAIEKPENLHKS

T4: Boi2, P39969
T4 sequence (P39969 32-116, looked up): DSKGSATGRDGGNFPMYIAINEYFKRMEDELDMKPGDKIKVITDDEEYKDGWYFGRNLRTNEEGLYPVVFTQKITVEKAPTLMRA

T5: Bud14, P27637
T5 sequence (P27637 247-328, looked up): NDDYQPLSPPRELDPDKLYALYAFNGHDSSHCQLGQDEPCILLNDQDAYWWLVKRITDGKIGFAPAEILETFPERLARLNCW

T6: Bzz1-1, P38822
T6 sequence (P38822 478-572, looked up): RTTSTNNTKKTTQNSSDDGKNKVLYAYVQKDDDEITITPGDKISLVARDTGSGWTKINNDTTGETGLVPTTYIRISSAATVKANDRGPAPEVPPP

T7: Bzz1-2, P38822
T7 sequence (P38822 568-633, looked up): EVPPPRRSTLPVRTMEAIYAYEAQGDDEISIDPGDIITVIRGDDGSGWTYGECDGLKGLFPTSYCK

T8: Cdc25, P04821
T8 sequence (P04821 50-136, looked up): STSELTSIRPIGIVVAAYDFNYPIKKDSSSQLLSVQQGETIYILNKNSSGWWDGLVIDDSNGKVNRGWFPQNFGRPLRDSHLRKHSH

T9: Cyk3, Q07533
T9 sequence (Q07533 1-83, looked up): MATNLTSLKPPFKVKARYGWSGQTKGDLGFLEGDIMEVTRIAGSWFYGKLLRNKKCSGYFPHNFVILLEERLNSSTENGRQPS

T10: Fus1, P11710
T10 sequence (P11710 432-512, looked up): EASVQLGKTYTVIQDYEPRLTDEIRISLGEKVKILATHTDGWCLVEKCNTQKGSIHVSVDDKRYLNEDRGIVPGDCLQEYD

T11: Hof1, Q05080
T11 sequence (Q05080 590-669, looked up): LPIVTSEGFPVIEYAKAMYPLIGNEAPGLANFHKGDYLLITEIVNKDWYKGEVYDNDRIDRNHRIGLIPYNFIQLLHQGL

T12: Hse1, P38753
T12 sequence (P38753 208-285, looked up): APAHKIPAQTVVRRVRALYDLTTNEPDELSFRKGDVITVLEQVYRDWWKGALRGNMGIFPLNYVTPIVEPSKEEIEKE

T13: Lsb1, P53281
T13 sequence (P53281 45-122, looked up): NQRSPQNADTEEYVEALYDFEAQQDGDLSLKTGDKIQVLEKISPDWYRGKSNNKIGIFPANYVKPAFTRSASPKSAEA

T14: Lsb3, P43603
T14 sequence (P43603 385-451, looked up): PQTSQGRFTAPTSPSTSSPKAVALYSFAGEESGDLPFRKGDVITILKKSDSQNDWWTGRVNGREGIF

T15: Lsb4, P32793
T15 sequence (P32793 402-468, looked up): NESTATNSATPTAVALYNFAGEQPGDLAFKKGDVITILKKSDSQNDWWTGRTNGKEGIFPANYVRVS

T16: Myo5, Q04439
T16 sequence (Q04439 1072-1160, looked up): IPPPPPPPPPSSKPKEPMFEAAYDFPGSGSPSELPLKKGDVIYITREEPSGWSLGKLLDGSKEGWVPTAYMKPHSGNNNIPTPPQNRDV

T17: Nbp2, Q12163
T17 sequence (Q12163 103-180, looked up): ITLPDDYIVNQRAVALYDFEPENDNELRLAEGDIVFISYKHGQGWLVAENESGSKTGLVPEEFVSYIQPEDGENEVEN

T18: Pex13, P80667
T18 sequence (P80667 295-386, looked up): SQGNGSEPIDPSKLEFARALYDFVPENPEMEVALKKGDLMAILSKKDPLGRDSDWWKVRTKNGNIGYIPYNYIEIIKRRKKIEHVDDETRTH

T19: Pin3, Q06449
T19 sequence (Q06449 53-122, looked up): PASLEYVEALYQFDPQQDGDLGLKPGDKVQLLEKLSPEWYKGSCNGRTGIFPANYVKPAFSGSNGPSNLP

T20: Sla1-2, P32790
T20 sequence (P32790 60-140, looked up): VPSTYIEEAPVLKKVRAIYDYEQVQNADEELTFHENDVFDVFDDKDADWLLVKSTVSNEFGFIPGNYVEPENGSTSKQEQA

T21: Sla1-3, P32790
T21 sequence (P32790 344-424, looked up): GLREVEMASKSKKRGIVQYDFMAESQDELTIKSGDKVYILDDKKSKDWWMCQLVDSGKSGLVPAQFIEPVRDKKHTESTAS


What follows are binders tested against T1, Abp1, P15891 (assay: SPOT array). Details: median of control spots 935.

SPOT intensity	Binder
899	KKAPPPVVKPKPRNF
0	SSSSSPPPLPTRRDH
345	SKIRPTPRKPSRMAT

The binders below were run against T2, Bbc1, P47068 (assay: SPOT array). Details: median of control spots 796.

SPOT intensity	Binder
2	KKAPPPVVKPKPRNF
3	SSSSSPPPLPTRRDH
37	SKIRPTPRKPSRMAT

What follows are binders tested against Bem1-1, P29366 (assay: SPOT array). Details: median of control spots 4282.
Chain of Bem1-1, P29366 (P29366 55-141): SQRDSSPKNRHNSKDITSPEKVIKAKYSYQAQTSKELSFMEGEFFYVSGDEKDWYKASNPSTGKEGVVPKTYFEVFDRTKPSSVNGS

SPOT intensity	Binder
0	KKAPPPVVKPKPRNF
8	SSSSSPPPLPTRRDH
6	SKIRPTPRKPSRMAT

These binders were tested against Bem1-2, P29366 (assay: SPOT array). Details: median of control spots 4347.
Chain of Bem1-2, P29366 (P29366 139-227): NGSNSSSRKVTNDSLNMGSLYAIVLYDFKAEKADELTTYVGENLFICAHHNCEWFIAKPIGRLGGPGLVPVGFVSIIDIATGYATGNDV

SPOT intensity	Binder
0	KKAPPPVVKPKPRNF
13	SSSSSPPPLPTRRDH
50	SKIRPTPRKPSRMAT

These binders were tested against T3, Boi1, P38041 (assay: SPOT array). Details: median of control spots 1162.

SPOT intensity	Binder
0	KKAPPPVVKPKPRNF
4	SSSSSPPPLPTRRDH
4	SKIRPTPRKPSRMAT

Each binder was assayed against T4, Boi2, P39969 (assay: SPOT array). Details: median of control spots 1161.

SPOT intensity	Binder
3	KKAPPPVVKPKPRNF
4	SSSSSPPPLPTRRDH
3	SKIRPTPRKPSRMAT

What follows are binders tested against T5, Bud14, P27637 (assay: SPOT array). Details: median of control spots 956.

SPOT intensity	Binder
3	KKAPPPVVKPKPRNF
0	SSSSSPPPLPTRRDH
13	SKIRPTPRKPSRMAT

Each binder was assayed against T6, Bzz1-1, P38822 (assay: SPOT array). Details: median of control spots 4446.

SPOT intensity	Binder
10	KKAPPPVVKPKPRNF
6	SSSSSPPPLPTRRDH
6	SKIRPTPRKPSRMAT

What follows are binders tested against T7, Bzz1-2, P38822 (assay: SPOT array). Details: median of control spots 4538.

SPOT intensity	Binder
360	KKAPPPVVKPKPRNF
3	SSSSSPPPLPTRRDH
16	SKIRPTPRKPSRMAT

What follows are binders tested against T8, Cdc25, P04821 (assay: SPOT array). Details: median of control spots 969.

SPOT intensity	Binder
15	KKAPPPVVKPKPRNF
15	SSSSSPPPLPTRRDH
35	SKIRPTPRKPSRMAT

The binders below were run against T9, Cyk3, Q07533 (assay: SPOT array). Details: median of control spots 1451.

SPOT intensity	Binder
5	KKAPPPVVKPKPRNF
1	SSSSSPPPLPTRRDH
6	SKIRPTPRKPSRMAT

What follows are binders tested against T10, Fus1, P11710 (assay: SPOT array). Details: median of control spots 1200.

SPOT intensity	Binder
1	KKAPPPVVKPKPRNF
1	SSSSSPPPLPTRRDH
12	SKIRPTPRKPSRMAT

The binders below were run against GST (assay: SPOT array). Details: median of control spots 978.

SPOT intensity	Binder
3	KKAPPPVVKPKPRNF
1	SSSSSPPPLPTRRDH
2	SKIRPTPRKPSRMAT

The binders below were run against T11, Hof1, Q05080 (assay: SPOT array). Details: median of control spots 4086.

SPOT intensity	Binder
10	KKAPPPVVKPKPRNF
16	SSSSSPPPLPTRRDH
8	SKIRPTPRKPSRMAT

What follows are binders tested against T12, Hse1, P38753 (assay: SPOT array). Details: median of control spots 1727.

SPOT intensity	Binder
0	KKAPPPVVKPKPRNF
4	SSSSSPPPLPTRRDH
19	SKIRPTPRKPSRMAT

Each binder was assayed against T13, Lsb1, P53281 (assay: SPOT array). Details: median of control spots 388.

SPOT intensity	Binder
4	KKAPPPVVKPKPRNF
463	SSSSSPPPLPTRRDH
10	SKIRPTPRKPSRMAT

Each binder was assayed against T14, Lsb3, P43603 (assay: SPOT array). Details: median of control spots 406.

SPOT intensity	Binder
0	KKAPPPVVKPKPRNF
485	SSSSSPPPLPTRRDH
124	SKIRPTPRKPSRMAT

Each binder was assayed against T15, Lsb4, P32793 (assay: SPOT array). Details: median of control spots 397.

SPOT intensity	Binder
0	KKAPPPVVKPKPRNF
748	SSSSSPPPLPTRRDH
162	SKIRPTPRKPSRMAT

What follows are binders tested against Myo3, P36006 (assay: SPOT array). Details: median of control spots 468.

SPOT intensity	Binder
0	KKAPPPVVKPKPRNF
69	SSSSSPPPLPTRRDH
50	SKIRPTPRKPSRMAT

The binders below were run against T16, Myo5, Q04439 (assay: SPOT array). Details: median of control spots 471.

SPOT intensity	Binder
0	KKAPPPVVKPKPRNF
19	SSSSSPPPLPTRRDH
23	SKIRPTPRKPSRMAT

These binders were tested against T17, Nbp2, Q12163 (assay: SPOT array). Details: median of control spots 357.

SPOT intensity	Binder
0	KKAPPPVVKPKPRNF
0	SSSSSPPPLPTRRDH
44	SKIRPTPRKPSRMAT

The binders below were run against T18, Pex13, P80667 (assay: SPOT array). Details: median of control spots 1341.

SPOT intensity	Binder
4	KKAPPPVVKPKPRNF
467	SSSSSPPPLPTRRDH
40	SKIRPTPRKPSRMAT

What follows are binders tested against T19, Pin3, Q06449 (assay: SPOT array). Details: median of control spots 2171.

SPOT intensity	Binder
1	KKAPPPVVKPKPRNF
0	SSSSSPPPLPTRRDH
20	SKIRPTPRKPSRMAT

Each binder was assayed against Rvs167, P39743 (assay: SPOT array). Details: median of control spots 2707.
Chain of Rvs167, P39743 (P39743 419-482): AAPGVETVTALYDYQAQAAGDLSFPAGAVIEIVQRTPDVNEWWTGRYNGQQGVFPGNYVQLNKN

SPOT intensity	Binder
1	KKAPPPVVKPKPRNF
3540	SSSSSPPPLPTRRDH
148	SKIRPTPRKPSRMAT

These binders were tested against Sho1, P40073 (assay: SPOT array). Details: median of control spots 1148.
Chain of Sho1, P40073 (P40073 287-367): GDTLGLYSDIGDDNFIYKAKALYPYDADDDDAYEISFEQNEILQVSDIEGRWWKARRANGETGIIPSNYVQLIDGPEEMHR

SPOT intensity	Binder
21	KKAPPPVVKPKPRNF
0	SSSSSPPPLPTRRDH
177	SKIRPTPRKPSRMAT

Each binder was assayed against T20, Sla1-2, P32790 (assay: SPOT array). Details: median of control spots 712.

SPOT intensity	Binder
2	KKAPPPVVKPKPRNF
0	SSSSSPPPLPTRRDH
21	SKIRPTPRKPSRMAT

What follows are binders tested against T21, Sla1-3, P32790 (assay: SPOT array). Details: median of control spots 5475.

SPOT intensity	Binder
0	KKAPPPVVKPKPRNF
7	SSSSSPPPLPTRRDH
21	SKIRPTPRKPSRMAT
